# B1: Lactoferrin (protein, UniProt P24627 20-708, looked up)
# Lactotransferrin: APRKNVRWCTISQPEWFKCRRWQWRMKKLGAPSITCVRRAFALECIRAIAEKKADAVTLDGGMVFEAGRDPYKLRPVAAEIYGTKESPQTHYYAVAVVKKGSNFQLDQLQGRKSCHTGLGRSAGWIIPMGILRPYLSWTESLEPLQGAVAKFFSASCVPCIDRQAYPNLCQLCKGEGENQCACSSREPYFGYSGAFKCLQDGAGDVAFVKETTVFENLPEKADRDQYELLCLNNSRAPVDAFKECHLAQVPSHAVVARSVDGKEDLIWKLLSKAQEKFGKNKSRSFQLFGSPPGQRDLLFKDSALGFLRIPSKVDSALYLGSRYLTTLKNLRETAEEVKARYTRVVWCAVGPEEQKKCQQWSQQSGQNVTCATASTTDDCIVLVLKGEADALNLDGGYIYTAGKCGLVPVLAENRKSSKHSSLDCVLRPTEGYLAVAVVKKANEGLTWNSLKDKKSCHTAVDRTAGWNIPMGLIVNQTGSCAFDEFFSQSCAPGADPKSRLCALCAGDDQGLDKCVPNSKEKYYGYTGAFRCLAEDVGDVAFVKNDTVWENTNGESTADWAKNLNREDFRLLCLDGTRKPVTEAQSCHLAVAPNHAVVSRSDRAAHVKQVLLHQQALFGKNGKNCPDKFCLFKSETKNLLFNDNTECLAKLGGRPTYEEYLGTEYVTAIANLKKCSTSPLLEACAFLTR
# What was measured:
# HPV16 PsV = format: cell-based, human papillomavirus; settings: HeLa cells, nonpolysaccharide compounds, dash = no inhibition at noncytotoxic doses
# Method: Various candidate HPV infection inhibitors were tested using a PsV-based inhibition assay. The assay uses flow cytometric analysis to assess the inhibition of PsV-mediated delivery of a green fluorescent protein (GFP) reporter plasmid into HeLa cells. HPV16, an exceptionally oncogenic genital HPV type, was chosen as a model HPV for initial experiments.
# (§1) Compounds were tested using a previously described PsV-based papillomavirus inhibition assay. Briefly, HeLa cells were plated at 6,000 cells/well in 50 μl of medium in 96-well plates. Candidate inhibitors were dissolved at 1–10 mg/ml (or reconstituted as directed by manufacturer) in sterile water or appropriate solvent, then subjected to a ten-point three-fold serial dilution covering an appropriate concentration range. Diluted candidate inhibitor (50 μl) was added to preplated HeLa cells, followed by 50 μl of diluted PsV stock. The cells were incubated for 24 h, fed by addition of 100 μl of DMEM-10, then subjected to flow cytometric analysis 48–56 h after infection. IC50 values and 95% CI were determined using Prism (GraphPad Software, San Diego, California, United States) to calculate a variable slope sigmoidal dose-response curve.
# PsV doses were calibrated such that between 5% and 20% of cells scored as GFP^+ when no inhibitors were added. […] HPV5 PsV infection of HeLa cells was performed with a dose of 35 ng/ml L1. […]
# HeLa cells = assay: Cytotoxicity (WST-1 turnover and/or cell morphology); format: cell-based; settings: >50% reduction in WST-1 turnover and/or altered cell morphology
# Method: as §1
# Cytotoxicity was defined as a >50% reduction in the net turnover of the metabolic substrate WST-1 (Roche, Indianapolis, Indiana, United States) and/or by the appearance of dramatic alterations in the microscopic appearance of cell morphology at the time of harvest.
molecule,measurement,setting,value
B1,IC50,HPV16 PsV,13 µg/mL
same,Cytotoxicity,HeLa cells,>780 µg/mL
